Measurements from article PMC5737849, “Structural study of the Fox-1 RRM protein hydration reveals a role for key water molecules in RRM-RNA recognition”.
Changes are numbered by the printed parent chain.

Legend:
Fox-1 RRM S155A = biological target: T1, Fox-1 RRM S155A (UniProt Q9NWB1 109-208, S155A); test: NMR (1H-1H TOCSY); 1:1 ratio, 20 mM NaCl, pH 6.5, 40 C; switchSENSE: 10 mM Tris-HCl pH 7.4, 140 mM NaCl, 0.05% Tween20, 25 C; NMR: 10 mM phosphate pH 6.5, 20 mM NaCl, 40 C; settings: protein: recombinant; tags: N-terminal 6xHis (pET28a); single strand
T1 sequence: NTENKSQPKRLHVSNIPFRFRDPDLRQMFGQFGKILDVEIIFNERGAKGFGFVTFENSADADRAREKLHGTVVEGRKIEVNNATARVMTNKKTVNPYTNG

Fox-1 RRM WT = biological target: T2, Fox-1 RRM WT (UniProt Q9NWB1 109-208); test: as above; settings: protein: recombinant; tags: N-terminal 6xHis (pET28a); single strand
T2 sequence: T1 sequence with A47S

UGCAUGU (ssRNA) [5'-UGCAUGU-3' RNA oligonucleotide (NMR)]: binds (Fox-1 RRM S155A); binds (Fox-1 RRM WT).
